Assay results from patent publication US20230212304A1 (BIOSION, published 2023).
Where a chain is given by its changes, count along the chain named. Like-named read-outs stand apart in the source and are kept apart here.

T1: recombinant human CTLA4 protein with human IgG1 Fc tag at the C-terminus (Acro biosystems, Cat#CT4-H5255) (human, UniProt P16410 37-162)
T1 construct: bought protein; also called human CTLA4-Fc; CTLA4-Fc; not shown: human IgG1 Fc tag at the C-terminus
T1 sequence (looked up): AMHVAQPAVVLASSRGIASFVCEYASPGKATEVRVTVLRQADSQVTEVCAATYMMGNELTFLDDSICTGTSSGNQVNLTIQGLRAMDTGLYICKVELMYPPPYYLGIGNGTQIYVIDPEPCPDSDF

T2: cynomolgus monkey CTLA4-his protein (Acro biosystems, Cat#CT4-C5227) (cynomolgus monkey, UniProt G7PL88 36-161)
T2 construct: bought recombinant protein; also called Cynomolgus CTLA4-his; not shown: his tag
T2 sequence: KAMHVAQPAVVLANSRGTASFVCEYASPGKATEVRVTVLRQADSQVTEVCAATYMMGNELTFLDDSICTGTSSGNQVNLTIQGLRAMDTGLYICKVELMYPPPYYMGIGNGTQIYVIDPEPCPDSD

T3: recombinant human CTLA4-his protein (Acro biosystems, Cat#CT4-H5229) (human, UniProt P16410 37-162)
T3 construct: bought recombinant protein; not shown: his tag
T3 sequence (looked up): T1 sequence (looked up)

B1: mouse anti-CTLA4 monoclonal antibody D1B6 (antibody, V domains shown)
VH: EVQLQQSGPELVKPGASVKLSCKASGNTFTTYVLNWVKQKPGQGLEWIGYFNPYNDGIKYNEKFKGKATLTSDKSSNTAYMELSSLTSEDSAVYYCARFEGGGYAMDYWGQGTSVTVSS
VL: DIVLTQSPASLAVSLGQRATISCRASQSVGTSRNTYIHWYQQKLGQPPKLLIKYASDLESGVPARFSGSGSGTDFTLNIHPVEEEDTATYYCQHSWEIPYTFGGGTKLEIK
notes: mouse mAb purified from hybridoma supernatant
B2: mouse anti-CTLA4 monoclonal antibody C1D1 (antibody, V domains shown)
VH: EVKLDETGGGLVQPGRPLKLSCVASGFTFSDNWMNWVRQSPEKGLEWVAQIRNKPYNYETYYSDSVKGRFTISRDDSKSSVYLQMNNLRVEDMGIYYCTGGMDYWGQGTSVTVSS
VL: DIQMTQSPASLSASVGETVTITCGASEIIYGALNWYQQKQGKSPQLLIYGATNLADGMSSRFSGSGSGRQYSLKISSLHPDDAATYYCQKILSPPPWTFGGGTKLEIK
notes: as for B1
B3: mouse anti-CTLA4 monoclonal antibody C1G4 (antibody, V domains shown)
VH: B2 VH with L18I, V90T, E91K, M102F, D103T, S110L, S115A
VL: DIQMTQSPPSLSASVGETVTITCGASENIYGGLNWYQRKQGKSPQLLIYGATNLADGMSSRFSGSGSGRQYSLKISRLHPDDVATYYCQNVLNTPYTFGGGTKLEIK
notes: as for B1
B4: huC1D1-V8 (antibody, human IgG4 S228P, kappa, V domains shown)
VH: EVQLVESGGGLVQPGRSLRLSCTASGFTFSDNWMNWVRQAPGKGLEWVGQIRNKPYNYETYYSDSVKGRFTISRDDSKSIAYLQMNSLKTEDTAVYYCTGGMDYWGQGTTVTVSS
VL: DIQMTQSPSSLSASVGDRVTITCGASEIIYGALNWYQQKPGKSPKLLIYGATNLADGVPSRFSGSGSGTDFTLTISSLQPEDVATYYCQKILSPPPWTFGGGTKVEIKR
notes: humanized IgG4/kappa; cell supernatant on Octet, purified antibody in Biacore, ELISA, FACS and the functional assay; also called hu CTLA4 C1D1-V8

Key:
[1] = target: T1, recombinant human CTLA4 protein with …; experiment: cell based blocking FACS: antibody pre-mixed with human CTLA4-Fc (1 ug/mL), added to Daudi cells; blocked ligands: cell surface CD80/CD86
Experimental: (§1) Daudi cells were harvested from cell culture flasks at the log phase, washed twice and re-suspended in PBS containing 2% v/v Fetal Bovine Serum (FACS buffer). […] Cells were washed twice and re-suspended in FACS buffer. Fluorescence was measured using a Becton Dickinson FACS Canto II-HTS equipment. Data was analyzed using Graphpad Prism software and IC₅₀ values were reported.

[2] = target: T1, recombinant human CTLA4 protein with …; experiment: capture ELISA: antibody captured on anti-mouse IgG F(ab')2 coated plate, biotin human CTLA4-Fc 26 ng/ml, streptavidin-HRP, OD(450-630)
Experimental: (§2) Plates were washed once with wash buffer (PBS+0.05% v/v Tween-20, PBST) and then blocked with 200 µl/well blocking buffer (PBST with 5% w/v non-fatty milk) for 2 hours at 37° C. […] After a final wash, plates were incubated with 100 µl/well substrate TMB (Innoreagents, Cat#TMB-S-002). The reaction was stopped in 15 minutes at room temperature with 50 µl/well 1M H₂SO₄, and the absorbance of the each well was read on a microplate reader using dual wavelength mode with 450 nm for TMB and 630 nm as the reference wavelength, then the OD (450-630) values were plotted against antibody concentration. Data was analyzed using Graphpad Prism software and EC₅₀ values were reported.

[3] = target: T1, recombinant human CTLA4 protein with …; experiment: competitive ELISA: antibody pre-mixed with biotin human CTLA4-Fc (65 ng/ml), added to plate coated with the benchmark; competitor: coated Yervoy
Experimental: (§3) Plates were washed once with wash buffer, blocked with 200 µl PBST with 5% w/v non-fatty milk, incubated for 2 hours at 37° C., and washed 4 times.
(§4) After incubation at 37° C. for 40 minutes, plates were washed 4 times again using wash buffer. Then the plates were added and incubated with 100 µl/well streptavidin conjugated HRP (1:10000 dilution in PBST, Jackson Immuno Research, Cat#016-030-084, 100 µl/well) for 40 minutes at 37° C. Plates were finally washed using wash buffer. Finally, TMB was added and the reaction was stopped using 1M H₂SO₄, and the absorbance of the each well was read on a microplate reader using dual wavelength mode with 450 nm for TMB and 630 nm as the reference wavelength, then the OD (450-630) values were plotted against antibody concentration. Data was analyzed using Graphpad Prism software and IC₅₀ values were reported.

[4] = target: T1, recombinant human CTLA4 protein with …; experiment: cell-based or functional assay
[5] = target: T1, recombinant human CTLA4 protein with …; experiment: capture ELISA: antibody captured on coated plate (anti-human IgG Fc for the chimeric antibodies), biotin human CTLA4-Fc, streptavidin-HRP, OD(450-630)
Experimental: as §2
For the capture ELISA, AffiniPure Goat Anti-Human IgG, Fcy fragment specific (Jackson Immuno Research, Cat#109-005-008) was used instead of AffiniPure Goat Anti-Mouse IgG, F(ab′)₂ fragment specific, 100 µl/well.

[6] = target: T1, recombinant human CTLA4 protein with …; experiment: cell based blocking FACS: antibody pre-mixed with human CTLA4-Fc, added to Daudi cells; blocked ligands: cell surface CD80/CD86
[7] = target: T2, cynomolgus monkey CTLA4-his protein …; experiment: SPR, Biacore T200; antibody captured, CTLA4-his as analyte
Experimental: (§5) Un-reacted moieties on the biosensor surface were blocked with ethanolamine. […] The antigen-antibody association kinetics was followed for 2 minutes and the dissociation kinetics was followed for 10 minutes. The association and dissociation curves were fit to a 1:1 Langmuir binding model using BIAcore evaluation software.

[8] = target: T3, recombinant human CTLA4-his protein …; experiment: as above
Experimental: as §5

[9] = target: T1, recombinant human CTLA4 protein with …; experiment: cell based blocking FACS: antibody pre-mixed with human CTLA4-Fc, added to Daudi cells; blocked ligands: cell surface CD80/CD86; remark: listed apart in the source
Experimental: as §1
(§6) In the capture ELISA assay, the 96-well micro plates were coated with 2 µg/ml goat anti-human IgG (AffiniPure Goat Anti-Human IgG, F(ab′)₂ fragment specific, Jackson Immunoresearch, Cat#109-005-097) instead of the goat anti-mouse IgG F(ab′)₂ fragment, 100 µl/well.

[10] = target: T1, recombinant human CTLA4 protein with …; experiment: cell-based or functional assay; remark: listed apart in the source
[11] = target: T1, recombinant human CTLA4 protein with …; experiment: capture ELISA (plate coated with goat anti-human IgG F(ab')2 per paragraph 181), biotin human CTLA4-Fc, streptavidin-HRP, OD(450-630)
Experimental: as §2, §6

[12] = target: T1, recombinant human CTLA4 protein with …; experiment: competitive ELISA: antibody pre-mixed with biotin human CTLA4-Fc, added to plate coated with the benchmark; competitor: coated Yervoy
Experimental: as §3, §4, §6

[13] = target: T3, recombinant human CTLA4-his protein …; experiment: BLI, Octet; antibody from cell supernatant on AHC sensor, CTLA4-his as analyte
Experimental: Briefly, AHC biosensors (anti-human IgG Fc capture, from ForteBio) were presoaked with 10 mM glycine (pH 1.5) for 3 seconds, and then dipped in a well with running buffer (0.5% w/v BSA in PBST) for 3 seconds, the soaking and dipping steps were repeated for three times. […] A new baseline was run for 180 seconds in another well with running buffer. […] Finally, sensors were presoaked with 10 mM glycine (pH 1.5) for 3 seconds, and then were dipped in a well with running buffer for 3 seconds, the soaking and dipping steps repeated for three times. The association and dissociation curves were fit to a 1:1 Langmuir binding model using ForteBio Data Analysis 8.1.

[14] = target: T2, cynomolgus monkey CTLA4-his protein …; experiment: SPR, Biacore; antibody captured on anti-human IgG CM5 chip, CTLA4-his as analyte
Experimental: as §5, with “software. […]” for “software.”

[15] = target: T3, recombinant human CTLA4-his protein …; experiment: as above
Experimental: as §5, with “software. […]” for “software.”

Row | Binder | IC50 [1] | EC50 [2] | IC50 [3] | EC50 of IL-2 release (GS-J1 T cells + GS-C1/CD80 cells + human CTLA4-Fc, IL-2 HTRF) [4] | EC50 [5] | IC50 [6] | Kd [7] | koff [7] | kon [7] | Kd [8] | koff [8] | kon [8] | IC50 [9] | EC50 of IL-2 release (GS-J1 T cells + GS-C1/CD80 cells + human CTLA4-Fc, IL-2 HTRF) [10] | EC50 [11] | IC50 [12] | further results
1 | B1 | ~4.6 nM | 0.116 nM | 0.618 nM | 36.6 nM | 0.418 nM | 8.09 nM | 4.12 nM | 0.000787 s⁻¹ | 191000 M⁻¹ s⁻¹ | 7.45 nM | 0.000487 s⁻¹ | 65400 M⁻¹ s⁻¹ | – | – | – | – | –
2 | B2 | 6.22 nM | 0.0479 nM | 0.338 nM | 35.1 nM | 0.445 nM | ~11.6 nM | 0.183 nM | 8.76e-05 s⁻¹ | 478000 M⁻¹ s⁻¹ | 0.399 nM | 0.0001 s⁻¹ | 251000 M⁻¹ s⁻¹ | ~9.72 nM | 0.03 µM | 0.121 nM | 0.8 nM | –
3 | B3 | 11 nM | 0.134 nM | 0.865 nM | 35.3 nM | 0.832 nM | 10.6 nM | 1.71 nM | 0.00077 s⁻¹ | 451000 M⁻¹ s⁻¹ | 1.77 nM | 0.000513 s⁻¹ | 290000 M⁻¹ s⁻¹ | – | – | – | – | –
4 | B4 | – | – | – | – | – | – | – | – | – | – | – | – | 5.74 nM | 0.0287 µM | 0.746 nM | 1.71 nM | Kd [13]: 0.614 nM; koff [13]: 0.00019 s⁻¹; kon [13]: 309000 M⁻¹ s⁻¹; Kd [14]: 7.49 nM; koff [14]: 0.00112 s⁻¹; kon [14]: 150000 M⁻¹ s⁻¹; Kd [15]: 12 nM; koff [15]: 0.00086 s⁻¹; kon [15]: 71900 M⁻¹ s⁻¹
